Results: patent US20100166741A1 (Genentech, published 2010)

What was measured:
[1] = biological target: T1, human FcγRI extracellular domain, His-tagged GST fusion (human, UniProt P12314 16-292); test: ELISA, captured FcγR-GST, monomeric IgG
T1 construct: extracellular domain; also called hFcgRI; FcγRIA; not shown: C-terminal Gly/His6/GST tag

[2] = biological target: T2, human FcγRIIb extracellular domain, His-tagged GST fusion (human, UniProt P31994 43-217); test: ELISA, captured FcγR-GST, multimeric IgG
T2 construct: extracellular domain; also called hFcgRIIb; CD32B; not shown: C-terminal Gly/His6/GST tag
T2 sequence (looked up): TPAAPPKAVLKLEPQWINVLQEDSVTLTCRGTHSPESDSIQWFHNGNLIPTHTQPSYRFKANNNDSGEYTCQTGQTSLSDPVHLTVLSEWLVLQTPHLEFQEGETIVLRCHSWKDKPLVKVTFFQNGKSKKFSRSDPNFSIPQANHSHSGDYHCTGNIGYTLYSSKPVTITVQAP

[3] = biological target: T3, human FcγRIIa extracellular domain, His-tagged GST fusion (human, UniProt P12318 34-217); test: ELISA, captured FcγR-GST, multimeric IgG
T3 construct: extracellular domain; also called hFcgRIIa; CD32A; not shown: C-terminal Gly/His6/GST tag
T3 sequence (looked up): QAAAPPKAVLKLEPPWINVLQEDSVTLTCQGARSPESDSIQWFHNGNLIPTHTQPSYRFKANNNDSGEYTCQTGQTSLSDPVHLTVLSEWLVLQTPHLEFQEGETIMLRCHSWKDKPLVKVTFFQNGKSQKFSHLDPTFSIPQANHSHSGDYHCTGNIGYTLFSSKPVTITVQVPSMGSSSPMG

[4] = biological target: T4, miniBR3 displayed on M13 phage (epitope-tagged, fused to gene-8 major coat protein) (human; bacteriophage M13, UniProt Q96RJ3 17-42); test: shotgun Ala scan, miniBR3 phage
T4 construct: range 17-42; also called p-miniBR3
Description: Each “partial miniBR3” template was used as the template for Kunkel mutagenesis with mutagenic oligonucleotides designed to replace the template stop codons with the complementary region of miniBR3, while simultaneously introducing mutations at the desired sites. At the sites of mutation, wild-type codons were replaced with the corresponding shotgun alanine codon (Weiss, supra). Each of these two libraries allowed for mutations at 11 residues in miniBR3 with no mutated positions in common between libraries. Library 1 encoded shotgun codons at positions 17, 18, 20-23, 25, 27, 28, 30, and 33, while library 2 encoded shotgun codons at positions 26, 29, 31, 34, and 36-42. Each library contained 2×10⁹ members, allowing for complete representation of the theoretical diversity (>10⁴-fold excess).
The display selection was included in order to normalize the anti-BR3 antibody-binding selection for expression differences between library members. Phage eluted from each target were propagated in E. coli XL1-blue; amplified phage were used for selection against the same target as in the previous round. After two rounds of selection, 48 individual clones from each library and selection were grown in a 96-well format in 400 L of 2YT medium supplemented with carbenicillin and KO7 helper phage.
F-values were calculated as previously described (Weiss, supra-, Gordon, supra). […] Deleterious mutations have ratios >1, while advantageous mutations have ratios <1; boldface indicates a >10-fold effect.

B1: Hu9.1RF IgG1 2% G0-F (antibody)
heavy: not shown
light: DIQMTQSPSSLSASVGDRVTITCKSSQSLLYSSNQNNYLAWYQQKPGKAPKLLIYWASTRESGVPSRFSGSGSGTDFTLTISSLQPEDFATYYCQQYYTYPYTFGQGTKVEIKRTVAAPSVFIFPPSDEQLKSGTASVVCLLNNFYPREAKVQWKVDNALQSGNSQESVTEQDSKDSTYSLSSTLTLSKADYEKHKVYACEVTHQGLSSPVTKSFNRGEC
modifications: 2% G0-F (afucosylated) Fc glycan content
notes: Same protein as Hu9.1RF IgG1; glycoform composition; also called 2% G0-F GLP-Hu9.1RF IgG1; 2% afucosylated Hu9.1RF IgG1
EC50 [1]: 0.00392 µg/mL
EC50 [2]: 0.96 µg/mL
EC50 [3]: 0.3 µg/mL

B2: Hu9.1RF IgG1 20% G0-F (antibody)
heavy: not shown
light: DIQMTQSPSSLSASVGDRVTITCKSSQSLLYSSNQNNYLAWYQQKPGKAPKLLIYWASTRESGVPSRFSGSGSGTDFTLTISSLQPEDFATYYCQQYYTYPYTFGQGTKVEIKRTVAAPSVFIFPPSDEQLKSGTASVVCLLNNFYPREAKVQWKVDNALQSGNSQESVTEQDSKDSTYSLSSTLTLSKADYEKHKVYACEVTHQGLSSPVTKSFNRGEC
modifications: expected 20% G0-F (determined 23%)
notes: Mixture of 37% G0-F and 2% G0-F Hu9.1RF IgG1
EC50 [1]: 0.00374 µg/mL
EC50 [2]: 0.82 µg/mL
EC50 [3]: 0.17 µg/mL

B3: Hu9.1RF IgG1 6% G0-F (antibody)
heavy: not shown
light: DIQMTQSPSSLSASVGDRVTITCKSSQSLLYSSNQNNYLAWYQQKPGKAPKLLIYWASTRESGVPSRFSGSGSGTDFTLTISSLQPEDFATYYCQQYYTYPYTFGQGTKVEIKRTVAAPSVFIFPPSDEQLKSGTASVVCLLNNFYPREAKVQWKVDNALQSGNSQESVTEQDSKDSTYSLSSTLTLSKADYEKHKVYACEVTHQGLSSPVTKSFNRGEC
modifications: expected 6% G0-F (determined 6%)
notes: as for B2
EC50 [1]: 0.00412 µg/mL
EC50 [2]: 0.91 µg/mL
EC50 [3]: 0.23 µg/mL

B4: Hu9.1RF IgG1 4% G0-F (antibody)
heavy: not shown
light: DIQMTQSPSSLSASVGDRVTITCKSSQSLLYSSNQNNYLAWYQQKPGKAPKLLIYWASTRESGVPSRFSGSGSGTDFTLTISSLQPEDFATYYCQQYYTYPYTFGQGTKVEIKRTVAAPSVFIFPPSDEQLKSGTASVVCLLNNFYPREAKVQWKVDNALQSGNSQESVTEQDSKDSTYSLSSTLTLSKADYEKHKVYACEVTHQGLSSPVTKSFNRGEC
modifications: expected 4% G0-F (determined 3%)
notes: as for B2
EC50 [1]: 0.00373 µg/mL
EC50 [2]: 0.95 µg/mL
EC50 [3]: 0.26 µg/mL

B5: Hu9.1RF IgG1 10% G0-F (antibody)
heavy: not shown
light: DIQMTQSPSSLSASVGDRVTITCKSSQSLLYSSNQNNYLAWYQQKPGKAPKLLIYWASTRESGVPSRFSGSGSGTDFTLTISSLQPEDFATYYCQQYYTYPYTFGQGTKVEIKRTVAAPSVFIFPPSDEQLKSGTASVVCLLNNFYPREAKVQWKVDNALQSGNSQESVTEQDSKDSTYSLSSTLTLSKADYEKHKVYACEVTHQGLSSPVTKSFNRGEC
modifications: expected 10% G0-F (determined 8%)
notes: as for B2
EC50 [1]: 0.00391 µg/mL
EC50 [2]: 0.88 µg/mL
EC50 [3]: 0.24 µg/mL

B6: 11G9 (antibody, V domains shown)
VH: DVQLQESGPSLVKPSQTLSLTCSVTGDSITSGYWNWIRKFPGNKLEYMGYISYSGSTYYNPSLKSRISITRDTSKNQFYLQLLSVTTEDTATYYCAGLDGLYWYFDVWGAGTLVTVSS
VL: DIVMTQTPLSLPVSLGDQASISCRSSQSLVHSNGNTYLHWYLQKPGQSPKLLIYKVSNRFSGVPDRFSGSGSGTDFTLKISRVEAEDLGVYFCSQSTHVPPFTFGSGT
notes: also called chimeric 11G9
F value, mutation at BR3 A22 [4]: 45
F value, mutation at BR3 A34 [4]: 32
F value, mutation at BR3 D26 [4]: 8.5
F value, mutation at BR3 E23 [4]: 6.9
F value, mutation at BR3 F25 [4]: 38
F value, mutation at BR3 G36 [4]: 1.8
F value, mutation at BR3 H31 [4]: 2.8
F value, mutation at BR3 L27 [4]: 1.1
F value, mutation at BR3 L28 [4]: 0.4
F value, mutation at BR3 L37 [4]: 0.7
F value, mutation at BR3 L38 [4]: 0.9
F value, mutation at BR3 P18 [4]: 0.5
F value, mutation at BR3 P21 [4]: 40
F value, mutation at BR3 P41 [4]: 1.7
F value, mutation at BR3 R30 [4]: 1.7
F value, mutation at BR3 R39 [4]: 3.1
F value, mutation at BR3 R42 [4]: 0.9
F value, mutation at BR3 T17 [4]: 0.5
F value, mutation at BR3 T40 [4]: 0.5
F value, mutation at BR3 V20 [4]: 1.1
F value, mutation at BR3 V29 [4]: 1
F value, mutation at BR3 V33 [4]: 24

B7: 2.1 (antibody, V domains shown)
VH: EVQLQESGPSLVKPSQTLSLTCSVTGDSITRGYWNWIRKFPGNKLEFMGYINYSGTTYYNPSLKSRISITRDTSKNQYYLQLNSVTTEDTATYYCATPHTYGAMDYWGQGTTLTVSA
VL: DIVLTQSPVSLAVSLGQRATISCRASESVDDYGISFMHWYQQKPGQPPKLLIYRASDLESGIPARFSGSGSGTDFTLTINPVETDDVAIYYCQQTSKDPWTFGGGT
notes: also called chimeric 2.1
F value, mutation at BR3 A22 [4]: 3.2
F value, mutation at BR3 A34 [4]: 62
F value, mutation at BR3 D26 [4]: 6.1
F value, mutation at BR3 E23 [4]: 9.6
F value, mutation at BR3 F25 [4]: 49
F value, mutation at BR3 G36 [4]: 14
F value, mutation at BR3 H31 [4]: 0.6
F value, mutation at BR3 L27 [4]: 0.8
F value, mutation at BR3 L28 [4]: 0.1
F value, mutation at BR3 L37 [4]: 0.1
F value, mutation at BR3 L38 [4]: 0.9
F value, mutation at BR3 P18 [4]: 0.5
F value, mutation at BR3 P21 [4]: 1.9
F value, mutation at BR3 P41 [4]: 0.7
F value, mutation at BR3 R30 [4]: 10
F value, mutation at BR3 R39 [4]: 0.5
F value, mutation at BR3 R42 [4]: 1.8
F value, mutation at BR3 T17 [4]: 0.6
F value, mutation at BR3 T40 [4]: 0.2
F value, mutation at BR3 V20 [4]: 3
F value, mutation at BR3 V29 [4]: 0.5
F value, mutation at BR3 V33 [4]: 10

B8: V3-1 (antibody, V domains shown)
VH: EVQLVESGGGLVQPGGSLRLSCAASGFTISSNSIHWVRQAPGKGLEWVAWITPSDGNTDYADSVKGRFTISADTSKNTAYLQMNSLRAEDTAVYYCARRVCYNRLGVCAGGMDYWGQGTLVTVSS
VL: DIQMTQSPSSLSASVGDRVTITCRASQDVSTAVAWYQQKPGKAPKLLIYSASFLYSGVPSRFSGSGSGTDFTLTISSLQPEDFATYYCQQSRITPPTFGQGTKVEIKR
F value, mutation at BR3 A22 [4]: 0.7
F value, mutation at BR3 A34 [4]: 13
F value, mutation at BR3 D26 [4]: 8.7
F value, mutation at BR3 E23 [4]: 2.4
F value, mutation at BR3 F25 [4]: 21
F value, mutation at BR3 G36 [4]: 0.7
F value, mutation at BR3 H31 [4]: 0.1
F value, mutation at BR3 L27 [4]: 1.4
F value, mutation at BR3 L28 [4]: 98
F value, mutation at BR3 L37 [4]: 0.7
F value, mutation at BR3 L38 [4]: 1.4
F value, mutation at BR3 P18 [4]: 0.8
F value, mutation at BR3 P21 [4]: 0.6
F value, mutation at BR3 P41 [4]: 1.6
F value, mutation at BR3 R30 [4]: 20
F value, mutation at BR3 R39 [4]: 0.4
F value, mutation at BR3 R42 [4]: 0.9
F value, mutation at BR3 T17 [4]: 0.5
F value, mutation at BR3 T40 [4]: 0.6
F value, mutation at BR3 V20 [4]: 0.9
F value, mutation at BR3 V29 [4]: 92
F value, mutation at BR3 V33 [4]: 14
